In PMC7082078 (Cell reports, 2020):
One block for each molecule: values may come before it.

Assays:
Assay in all cases: AUC
[1] = target: Xenopus pcdh8.1 full ectodomain (EC1–EC6) (Xenopus)
[2] = target: Xenopus pcdh8.2 (PAPC) full ectodomain (EC1–EC6) (Xenopus)
[3] = target: human pcdh7 EC1–EC4 fragment (human)
[4] = target: human pcdh8 EC5–EC6 fragment (human)
[5] = target: human pcdh9 EC1–EC4 fragment (human)
[6] = target: human pcdh10 EC1–EC3 fragment (human)
[7] = target: human pcdh10 EC1–EC4 fragment (human)
[8] = target: human pcdh10 EC5–EC6 fragment (human)
[9] = target: human pcdh10 full ectodomain (EC1–EC6) (human)
[10] = target: human pcdh11Y full ectodomain (EC1–EC7) (human)
[11] = target: human pcdh12 full ectodomain fragment (EC1–EC6) (human)
[12] = target: human pcdh17 full ectodomain (EC1–EC6) (human)
[13] = target: human pcdh18 full ectodomain (EC1–EC6) (human)
[14] = target: mouse pcdh7 EC1–EC4 fragment (mouse)
[15] = target: mouse pcdh7 full ectodomain (EC1–EC7) (mouse)
AUC = target: the molecule itself

Molecule: Xenopus pcdh8.1 full ectodomain (EC1–EC6) (domain or fragment)
- Kd [1]: 3.5 µM
- stoichiometry N [1]: 2

Molecule: human pcdh7 EC1–EC4 fragment (domain or fragment)
- Kd [3]: 2.7 µM
- stoichiometry N [3]: 2

Molecule: human pcdh9 EC1–EC4 fragment (domain or fragment)
- Kd [5]: 2 µM
- stoichiometry N [5]: 2

Molecule: human pcdh10 EC1–EC3 fragment (domain or fragment)
- Kd [6]: 280 µM
- stoichiometry N [6]: 2

Molecule: human pcdh10 full ectodomain (EC1–EC6) (domain or fragment)
- Kd [9]: 3.6 µM
- stoichiometry N [9]: 2

Molecule: human pcdh11Y full ectodomain (EC1–EC7) (domain or fragment)
- Kd [10]: 7.8 µM
- stoichiometry N [10]: 2

Molecule: human pcdh12 full ectodomain fragment (EC1–EC6) (domain or fragment)
- stoichiometry N [11]: 2

Molecule: mouse pcdh7 EC1–EC4 fragment (domain or fragment)
- Kd [14]: 4.1 µM
- stoichiometry N [14]: 2

Molecule: mouse pcdh7 full ectodomain (EC1–EC7) (domain or fragment)
- Kd [15]: 8.2 µM
- stoichiometry N [15]: 2

B1: human pcdh1 EC1–EC4 fragment (domain or fragment)
chain: TRVVYKVPEEQPPNTLIGSLAADYGFPDVGHLYKLEVGAPYLRVDGKTGDIFTTETSIDREGLRECQNQLPGDPCILEFEVSITDLVQNGSPRLLEGQIEVQDINDNTPNFASPVITLAIPENTNIGSLFPIPLASDRDAGPNGVASYELQAGPEAQELFGLQVAEDQEEKQPQLIVMGNLDRERWDSYDLTIKVQDGGSPPRASSALLRVTVLDTNDNAPKFERPSYEAELSENSPIGHSVIQVKANDSDQGANAEIEYTFHQAPEVVRRLLRLDRNTGLITVQGPVDREDLSTLRFSVLAKDRGTNPKSARAQVVVTVKDMNDNAPTIEIRGIGLVTHQDGMANISEDVAEETAVALVQVSDRDEGENAAVTCVVAGDVPFQLRQASETGSDSKKKYFLQTTTPLDYEKVKDYTIEIVAVDSGNPPLSSTNSLKVQVVD
- Kd (AUC): 0.53 µM
- stoichiometry N (AUC): 2

B2: human pcdh9 full ectodomain (EC1–EC7) (domain or fragment)
chain: QELIYTIREELPENVPIGNIPKDLNISHINAATGTSASLVYRLVSKAGDAPLVKVSSSTGEIFTTSNRIDREKLCAGASYAEENECFFELEVVILPNDFFRLIKIKIIVKDTNDNAPMFPSPVINISIPENTLINSRFPIPSATDPDTGFNGVQHYELLNGQSVFGLDIVETPEGEKWPQLIVQQNLDREQKDTYVMKIKVEDGGTPQKSSTAILQVTVSDVNDNRPVFKEGQVEVHIPENAPVGTSVIQLHATDADIGSNAEIRYIFGAQVAPATKRLFALNNTTGLITVQRSLDREETAIHKVTVLASDGSSTPARATVTINVTDVNDNPPNIDLRYIISPINGTVYLSEKDPVNTKIALITVSDKDTDVNGKVICFIEREVPFHLKAVYDNQYLLETSSLLDYEGTKEFSFKIVASDSGKPSLNQTALVRVKLEDENDNPPIFNQPVIELSVSENNRRGLYLTTISATDEDSGKNADIVYQLGPNASFFDLDRKTGVLTASRVFDREEQERFIFTVTARDNGTPPLQSQAAVIVTVLDENDNSPKFTHNHFQFFVSENLPKYSTVGVITVTDADAGENKAVTLSILNDNDNFVLDPYSGVIKSNVSFDREQQSSYTFDVKATDGGQPPRSSTAKVTINVMDVNDNSPVVISPPSNTSFKLVPLSAIPGSVVAEVFAVDVDTGMNAELKYTIVSGNNKGLFRIDPVTGNITLEEKPAPTDVGLHRLVVNISDLGYPKSLHTLVLVFLYVNDTAGNASYIYDLIRRTMETPLDRNIGDSSQPYQNEDYLT
- Kd (AUC): 2.03 µM
- stoichiometry N (AUC): 2

B3: human pcdh1 full ectodomain (EC1–EC7) (domain or fragment)
chain: TRVVYKVPEEQPPNTLIGSLAADYGFPDVGHLYKLEVGAPYLRVDGKTGDIFTTETSIDREGLRECQNQLPGDPCILEFEVSITDLVQNGSPRLLEGQIEVQDINDNTPNFASPVITLAIPENTNIGSLFPIPLASDRDAGPNGVASYELQAGPEAQELFGLQVAEDQEEKQPQLIVMGNLDRERWDSYDLTIKVQDGGSPPRASSALLRVTVLDTNDNAPKFERPSYEAELSENSPIGHSVIQVKANDSDQGANAEIEYTFHQAPEVVRRLLRLDRNTGLITVQGPVDREDLSTLRFSVLAKDRGTNPKSARAQVVVTVKDMNDNAPTIEIRGIGLVTHQDGMANISEDVAEETAVALVQVSDRDEGENAAVTCVVAGDVPFQLRQASETGSDSKKKYFLQTTTPLDYEKVKDYTIEIVAVDSGNPPLSSTNSLKVQVVDVNDNAPVFTQSVTEVAFPENNKPGEVIAEITASDADSGSNAELVYSLEPEPAAKGLFTISPETGEIQVKTSLDREQRESYELKVVAADRGSPSLQGTATVLVNVLDCNDNDPKFMLSGYNFSVMENMPALSPVGMVTVIDGDKGENAQVQLSVEQDNGDFVIQNGTGTILSSLSFDREQQSTYTFQLKAVDGGVPPRSAYVGVTINVLDENDNAPYITAPSNTSHKLLTPQTRLGETVSQVAAEDFDSGVNAELIYSIAGGNPYGLFQIGSHSGAITLEKEIERRHHGLHRLVVKVSDRGKPPRYGTALVHLYVNETLANRTLLETLLGHSLDTPLDIDIAGDPEYERSKQRGN
- Kd (AUC): 1.2 µM
- stoichiometry N (AUC): 2

B4: human pcdh19 full ectodomain (EC1–EC6) (domain or fragment)
chain: LINLKYSVEEEQRAGTVIANVAKDAREAGFALDPRQASAFRVVSNSAPHLVDINPSSGLLVTKQKIDRDLLCRQSPKCIISLEVMSSSMEICVIKVEIKDLNDNAPSFPAAQIELEISEAASPGTRIPLDSAYDPDSGSFGVQTYELTPNELFGLEIKTRGDGSRFAELVVEKSLDRETQSHYSFRITALDGGDPPRLGTVGLSIKVTDSNDNNPVFSESTYAVSVPENSPPNTPVIRLNASDPDEGTNGQVVYSFYGYVNDRTRELFQIDPHSGLVTVTGALDYEEGHVYELDVQAKDLGPNSIPAHCKVTVSVLDTNDNPPVINLLSVNSELVEVSESAPPGYVIALVRVSDRDSGLNGRVQCRLLGNVPFRLQEYESFSTILVDGRLDREQHDQYNLTIQARDGGVPMLQSAKSFTVLITDENDNHPHFSKPYYQVIVQENNTPGAYLLSVSARDPDLGLNGSVSYQIVPSQVRDMPVFTYVSINPNSGDIYALRSFNHEQTKAFEFKVLAKDGGLPSLQSNATVRVIILDVNDNTPVITAPPLINGTAEVYIPRNSGIGYLVTVVKAEDYDEGENGRVTYDMTEGDRGFFEIDQVNGEVRTTRTFGESSKSSYELIVVAHDHGKTSLSASALVLIYLSPALDAQESMGSVNLS
- Kd (AUC): 0.48 µM
- stoichiometry N (AUC): 2

Other lines, results leading:

- stoichiometry N [2]: 2
Molecule: Xenopus pcdh8.2 (PAPC) full ectodomain (EC1–EC6) (domain or fragment)

- Kd [4]: > 1000 µM
Molecule: human pcdh8 EC5–EC6 fragment (domain or fragment)

- Kd [7]: 0.68 µM
- stoichiometry N [7]: 2
Molecule: human pcdh10 EC1–EC4 fragment (domain or fragment)

- Kd [8]: > 1000 µM
Molecule: human pcdh10 EC5–EC6 fragment (domain or fragment)

- Kd [12]: 4.8 µM
- stoichiometry N [12]: 2
Molecule: human pcdh17 full ectodomain (EC1–EC6) (domain or fragment)

- Kd [13]: 2.7 µM
- stoichiometry N [13]: 2
Molecule: human pcdh18 full ectodomain (EC1–EC6) (domain or fragment)
